Experimental data taken from the supplement of paper PMC5998384.

Columns and labels:
HeLa Kyoto [1] = assay: solubility change mitosis vs G1/S (difference of NP-40 vs SDS log2 ratios) (log2 ratio difference); higher = more soluble in mitosis
HeLa Kyoto [2] = assay: solubility in G1/S (NP-40 vs SDS abundance) (log2 ratio); higher = more soluble; settings: cell cycle stage: G1/S
HeLa Kyoto [3] = assay: melting temperature (median over replicates), in situ; higher = more thermally stable
HeLa Kyoto [4] = assay: thermal stability score vs G1/S (z-score of summed log2 fold changes over temperatures); higher = more thermally stable than in G1/S
[5] = cell cycle stage: early G1 (4.5 h after nocodazole release)
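Wherever melting temperature (median over replicates), in situ is given: HeLa Kyoto cells synchronized by double thymidine or nocodazole block, proteins quantified by TMT10plex mass spectrometry, three independent biological replicates.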
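Wherever solubility change mitosis vs G1/S (difference of NP-40 vs SDS log2 ratios) is given: synchronized HeLa Kyoto cells (double thymidine block for G1/S, nocodazole release for mitosis), protein amounts in NP-40 versus SDS lysates quantified by mass spectrometry, three biological replicates.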
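Wherever solubility in G1/S (NP-40 vs SDS abundance) is given: HeLa Kyoto cells arrested at G1/S by double thymidine block, proteins quantified by TMT10plex mass spectrometry in mild NP-40 versus SDS extracts, three biological replicates.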
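Wherever thermal stability score vs G1/S (z-score of summed log2 fold changes over temperatures) is given: synchronized HeLa Kyoto cells, proteins quantified by TMT10plex mass spectrometry, three biological replicates, mitosis taken 0.5 h after nocodazole release, G1/S directly after double thymidine block.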

Sequence | solubility change mitosis (log2) (HeLa Kyoto [1]) | solubility in G1/S (log2) (HeLa Kyoto [2]) | melting temperature (HeLa Kyoto [3]; cell cycle stage: G1/S) | melting temperature (HeLa Kyoto [3]; cell cycle stage: mitosis) | thermal stability score (HeLa Kyoto [4]; [5]) | thermal stability score (HeLa Kyoto [4]; cell cycle stage: mitosis)
MGALRPTLLPPSLPLLLLLMLGMGCWAREVLVPEGPLYRVAGTAVSISCNVTGYEGPAQQNFEWFLYRPEAPDTALGIVSTKDTQFSYAVFKSRVVAGEVQVQRLQGDAVVLKIARLQAQDAGIYECHTPSTDTRYLGSYSGKVELRVLPDVLQVSAAPPGPRGRQAPTSPPRMTVHEGQELALGCLARTSTQKHTHLAVSFGRSVPEAPVGRSTLQEVVGIRSDLAVEAGAPYAERLAAGELRLGKEGTDRYRMVVGGAQAGDAGTYHCTAAEWIQDPDGSWAQIAEKRAVLAHVDVQTLSSQLAVTVGPGERRIGPGEPLELLCNVSGALPPAGRHAAYSVGWEMAPAGAPGPGRLVAQLDTEGVGSLGPGYEGRHIAMEKVASRTYRLRLEAARPGDAGTYRCLAKAYVRGSGTRLREAASARSRPLPVHVREEGVVLEAVAWLAGGTVYRGETASLLCNISVRGGPPGLRLAASWWVERPEDGELSSVPAQLVGGVGQDGVAELGVRPGGGPVSVELVGPRSHRLRLHSLGPEDEGVYHCAPSAWVQHADYSWYQAGSARSGPVTVYPYMHALDTLFVPLLVGTGVALVTGATVLGTITCCFMKRLRKR [IGSF8] | -0.0392 | -0.0809 | 56.3 °C | 54.7 °C | -2.98 | -1.56
MGDAKEAGAEGPPAGAAARGGLSLLSQGESEESSAQGSALFLGGNEVKSRAVVKYSSAPPRTAFARLEEKTDLKLPPANWLRESAKLGPAGTTILGNSKKSKPFSSFGMAYDFIDSVGNDVDVVSDSENIKKLLKIPYSKSHVSMAVHRIGRTLLLDELDIQELFMRSSQTGDWTWLKEFYQRLIDQKWQRKKKSKEHWYQKAILSKFLYYSINGDGAAQPVSSTAEQQESSSSDQTNDSEGASWPAPFEMPSSVSEDPSASSQGSEPLEPSYIVGHVASAPKEQNLITLFNDGEHSQGLKNDFVRNILWTFEDIHMLVGSNMPIFGGGRYPAVSLRLRDNNKPINVLTGIDYWLDNLICNVPELVMCFHVNGIVQKYEMIKTEEIPNLENSNFSTKVIKDIAQNILSFLKSNCTKEGHTYWLFKASGSDIVKLYDLTTLCEETEDKYQNPFTMPVAILLYKVACNMMMKKNQNKKHYGTIRTLLLNCLKLLDKSRHPQIIASANYMLSELFQLDEPKKEENSESPLNENSDESYSEEEEEMPDSDENGSYSTSSDPSDDSKAVAIIKSVGELSVPEKYKSIHQIRPSCAFPVCHDTEERCRLVLSYVLEGLKSVDSSIKKESDLPAADPSTPIPLKYEDESSRGGPEGLEKQMALFLDKMGSLQKGNYSSQSGMIPGSWQHKMKLQLILKSSKAYYVLSDAAMSLQKYGRALRYIKLALQSHDTYCCLCTNMLSEVLLFLSQYLTLCGDIQLMLAQNANNRAAHLEEFHYQTKEDQEILHSLHRESSCQGFAWATDLSTDLESQLSVSCKCYEAANEILQFSDLKSQNPEHYVQVLKRMGNIRNEIGVFYMNQAAALQSERLVSKSVSAAEQQLWKKSFSCFEKGIHNFESIEDATNAALLLCNTGRLMRICAQAHCGAGDELKREFSPEEGLYYNKAIDYYLKALRSLGTRDIHPAVWDSVNWELSTTYFTMATLQQDYAPLSRKAQEQIEKEVSEAMMKSLKYCDVDSVSARQPLCQYRAATIHHRLASMYHSCLRNQVGDEHLRKQHRVLADLHYSKAAKLFQLLKDAPCELLRVQLERVAFAEFQMTSQNSNVGKLKTLSGALDIMVRTEHAFQLIQKELIEEFGQPKSGDAAAAADASPSLNREEVMKLLSIFESRLSFLLLQSIKLLSSTKKKTSNNIEDDTILKTNKHIYSQLLRATANKTATLLERINVIVHLLGQLAAGSAASSNAVQ [EDRF1] | -0.0878 | -0.026 | 51 °C | 49.3 °C | 0.416 | -0.168
MGDHAWSFLKDFLAGGVAAAVSKTAVAPIERVKLLLQVQHASKQISAEKQYKGIIDCVVRIPKEQGFLSFWRGNLANVIRYFPTQALNFAFKDKYKQLFLGGVDRHKQFWRYFAGNLASGGAAGATSLCFVYPLDFARTRLAADVGKGAAQREFHGLGDCIIKIFKSDGLRGLYQGFNVSVQGIIIYRAAYFGVYDTAKGMLPDPKNVHIFVSWMIAQSVTAVAGLVSYPFDTVRRRMMMQSGRKGADIMYTGTVDCWRKIAKDEGAKAFFKGAWSNVLRGMGGAFVLVLYDEIKKYV [SLC25A4] | -0.117 | -0.352 | 58.1 °C | 56.4 °C | -2.08 | -1.11
MGDTVVEPAPLKPTSEPTSGPPGNNGGSLLSVITEGVGELSVIDPEVAQKACQEVLEKVKLLHGGVAVSSRGTPLELVNGDGVDSEIRCLDDPPAQIREEEDEMGAAVASGTAKGARRRRQNNSAKQSWLLRLFESKLFDISMAISYLYNSKEPGVQAYIGNRLFCFRNEDVDFYLPQLLNMYIHMDEDVGDAIKPYIVHRCRQSINFSLQCALLLGAYSSDMHISTQRHSRGTKLRKLILSDELKPAHRKRELPSLSPAPDTGLSPSKRTHQRSKSDATASISLSSNLKRTASNPKVENEDEELSSSTESIDNSFSSPVRLAPEREFIKSLMAIGKRLATLPTKEQKTQRLISELSLLNHKLPARVWLPTAGFDHHVVRVPHTQAVVLNSKDKAPYLIYVEVLECENFDTTSVPARIPENRIRSTRSVENLPECGITHEQRAGSFSTVPNYDNDDEAWSVDDIGELQVELPEVHTNSCDNISQFSVDSITSQESKEPVFIAAGDIRRRLSEQLAHTPTAFKRDPEDPSAVALKEPWQEKVRRIREGSPYGHLPNWRLLSVIVKCGDDLRQELLAFQVLKQLQSIWEQERVPLWIKPYKILVISADSGMIEPVVNAVSIHQVKKQSQLSLLDYFLQEHGSYTTEAFLSAQRNFVQSCAGYCLVCYLLQVKDRHNGNILLDAEGHIIHIDFGFILSSSPRNLGFETSAFKLTTEFVDVMGGLDGDMFNYYKMLMLQGLIAARKHMDKVVQIVEIMQQGSQLPCFHGSSTIRNLKERFHMSMTEEQLQLLVEQMVDGSMRSITTKLYDGFQYLTNGIM [PI4KB] | -0.221 | 0.00648 | 52.3 °C | 52.2 °C | -0.522 | -0.618
MGFLKLIEIENFKSYKGRQIIGPFQRFTAIIGPNGSGKSNLMDAISFVLGEKTSNLRVKTLRDLIHGAPVGKPAANRAFVSMVYSEEGAEDRTFARVIVGGSSEYKINNKVVQLHEYSEELEKLGILIKARNFLVFQGAVESIAMKNPKERTALFEEISRSGELAQEYDKRKKEMVKAEEDTQFNYHRKKNIAAERKEAKQEKEEADRYQRLKDEVVRAQVQLQLFKLYHNEVEIEKLNKELASKNKEIEKDKKRMDKVEDELKEKKKELGKMMREQQQIEKEIKEKDSELNQKRPQYIKAKENTSHKIKKLEAAKKSLQNAQKHYKKRKGDMDELEKEMLSVEKARQEFEERMEEESQSQGRDLTLEENQVKKYHRLKEEASKRAATLAQELEKFNRDQKADQDRLDLEERKKVETEAKIKQKLREIEENQKRIEKLEEYITTSKQSLEEQKKLEGELTEEVEMAKRRIDEINKELNQVMEQLGDARIDRQESSRQQRKAEIMESIKRLYPGSVYGRLIDLCQPTQKKYQIAVTKVLGKNMDAIIVDSEKTGRDCIQYIKEQRGEPETFLPLDYLEVKPTDEKLRELKGAKLVIDVIRYEPPHIKKALQYACGNALVCDNVEDARRIAFGGHQRHKTVALDGTLFQKSGVISGGASDLKAKARRWDEKAVDKLKEKKERLTEELKEQMKAKRKEAELRQVQSQAHGLQMRLKYSQSDLEQTKTRHLALNLQEKSKLESELANFGPRINDIKRIIQSREREMKDLKEKMNQVEDEVFEEFCREIGVRNIREFEEEKVKRQNEIAKKRLEFENQKTRLGIQLDFEKNQLKEDQDKVHMWEQTVKKDENEIEKLKKEEQRHMKIIDETMAQLQDLKNQHLAKKSEVNDKNHEMEEIRKKLGGANKEMTHLQKEVTAIETKLEQKRSDRHNLLQACKMQDIKLPLSKGTMDDISQEEGSSQGEDSVSGSQRISSIYAREALIEIDYGDLCEDLKDAQAEEEIKQEMNTLQQKLNEQQSVLQRIAAPNMKAMEKLESVRDKFQETSDEFEAARKRAKKAKQAFEQIKKERFDRFNACFESVATNIDEIYKALSRNSSAQAFLGPENPEEPYLDGINYNCVAPGKRFRPMDNLSGGEKTVAALALLFAIHSYKPAPFFVLDEIDAALDNTNIGKVANYIKEQSTCNFQAIVISLKEEFYTKAESLIGVYPEQGDCVISKVLTFDLTKYPDANPNPNEQ [SMC1A] | 0.0456 | -0.302 | 51.9 °C | 51.3 °C | -0.868 | -1.79
